From paper PMC11402997

Details: phosphorylation at S2808

Substance | other | structure_or_conformation
RyR2 (ryanodine receptor type 2): S2808D phosphomimetic | increases | 
RyR2 (ryanodine receptor type 2): S2808D phosphomimetic (expressing cells also treated with H2O2; irreversible oxidative modifications retained) |  | changes, RMSD normalized projection = 0.11 (subprimed state)
